Our source for the stoichiometry N values is article PMC8965321.

The test has as its target GP46 protein of Lactococcus lactis phage vB_Llc_bIBBF13 (F13), purified, SUMO tag removed (Lactococcus lactis phage vB_Llc_bIBBF13 (F13)). Description: SEC-MALS; GP46F13 100 ul injected at 1.5 mg/ml on Superdex 200 Increase 10/300, room temperature, 0.5 ml/min, 50 mM Tris-HCl pH 8, 500 mM NaCl, 20 mM imidazole, no cofactors. In general terms: In gel filtration, larger molecules generally elute earlier.

In the case of “GP46 protein of Lactococcus lactis phage vB_Llc_bIBBF13 (F13), purified, SUMO tag removed (enzyme)”, the stoichiometry N (in general, a count of units in the complex or per binding partner) worked out at 2.
